The assay deals with RBK21 variable region (residues 148-299) (P. falciparum (field isolate Lek174)). Kind of assay: SPR. On the technique in general: In SPR one partner is held on a chip, and binding of the other changes the refractive index at the surface.

Sequence of KIR2DS1 (SPR protein) (Q14954 22-245): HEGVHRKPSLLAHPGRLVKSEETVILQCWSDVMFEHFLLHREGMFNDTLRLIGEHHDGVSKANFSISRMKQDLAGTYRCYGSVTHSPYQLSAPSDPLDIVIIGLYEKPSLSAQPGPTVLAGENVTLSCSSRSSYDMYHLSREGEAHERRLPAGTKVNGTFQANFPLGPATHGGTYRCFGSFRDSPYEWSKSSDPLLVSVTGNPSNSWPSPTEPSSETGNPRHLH
Sequence of KIR2DL1 (residues 27-221) (P43626 27-221): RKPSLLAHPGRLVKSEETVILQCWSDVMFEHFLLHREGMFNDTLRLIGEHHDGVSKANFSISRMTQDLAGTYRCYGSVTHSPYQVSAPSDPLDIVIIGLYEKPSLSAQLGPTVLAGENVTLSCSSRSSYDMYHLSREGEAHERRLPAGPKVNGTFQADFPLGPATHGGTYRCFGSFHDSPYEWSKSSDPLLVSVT

Consider “KIR2DL1 (residues 27-221) (from UniProt P43626 27-221) (domain or fragment)”, for which the Kd (commonly the constant that tells how readily two partners part at equilibrium) was determined as 500 nM.

For the substance “KIR2DS1 (SPR protein) (from UniProt Q14954) (receptor)”, the Kd was found to be 1700 nM.

The values are drawn from publication PMC12310515.
